The results in this text go back to patent publication US20200385445A1.

The target in assay [1] is mouse PVRIG over-expressed on HEK293 cells (RC-287; PVRIG-FLAG RC-286) (mouse). The assay can be described thus: FACS on cells OX mouse PVRIG, preliminary data.
The target of assay [2] is mouse PVRL2 splice variant 2 (sv2) over-expressed on HEK293 cells (RC-335) (mouse) (UniProt P32507). The assay can be described thus: FACS dose response on HEK293 OX mouse PVRL2.
For assay [3], the target named is mouse PVRL2 endogenously expressed on B16-F10 cells (mouse) (UniProt P32507). The experiment in a line: FACS dose response on B16-F10 cells.
The target in assay [4] is mouse PVRL2 splice variant 1 (sv1) over-expressed on HEK293 cells (RC-334) (mouse) (UniProt P32507). The experiment in a line: FACS on HEK293 OX mouse PVRL2 sv1.
Assay [5] addresses mouse PVRIG over-expressed on HEK293 cells (RC-287; PVRIG-FLAG RC-286) (mouse). The assay can be described thus: FACS on HEK293 OX mouse PVRIG, 60 ug/ml, other of two sources.
For assay [6] the target is unchanged. The assay can be described thus: FACS on cells OX mouse PVRIG.
Assay [7] has the same target. The assay can be described thus: FACS on HEK293 OX mouse PVRIG, 60 ug/ml, one of two sources.

mouse PVRL2-his (R&D, 3869-N2; Sino Biological, 50318-M08H), sequence (P32507 32-351 limits assumed, stated change not applied): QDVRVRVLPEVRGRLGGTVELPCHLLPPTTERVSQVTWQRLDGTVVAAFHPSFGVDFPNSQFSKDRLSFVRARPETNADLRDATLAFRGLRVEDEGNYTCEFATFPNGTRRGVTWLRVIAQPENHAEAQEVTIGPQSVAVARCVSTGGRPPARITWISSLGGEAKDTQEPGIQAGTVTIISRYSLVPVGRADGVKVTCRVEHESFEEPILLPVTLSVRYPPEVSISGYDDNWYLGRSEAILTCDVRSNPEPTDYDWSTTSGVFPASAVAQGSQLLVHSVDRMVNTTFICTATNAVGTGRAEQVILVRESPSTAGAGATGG
mouse PVRL2 splice variant 1 (sv1) over-expressed on HEK293 cells (RC-334) (mouse), sequence (P32507 32-530, change not shown): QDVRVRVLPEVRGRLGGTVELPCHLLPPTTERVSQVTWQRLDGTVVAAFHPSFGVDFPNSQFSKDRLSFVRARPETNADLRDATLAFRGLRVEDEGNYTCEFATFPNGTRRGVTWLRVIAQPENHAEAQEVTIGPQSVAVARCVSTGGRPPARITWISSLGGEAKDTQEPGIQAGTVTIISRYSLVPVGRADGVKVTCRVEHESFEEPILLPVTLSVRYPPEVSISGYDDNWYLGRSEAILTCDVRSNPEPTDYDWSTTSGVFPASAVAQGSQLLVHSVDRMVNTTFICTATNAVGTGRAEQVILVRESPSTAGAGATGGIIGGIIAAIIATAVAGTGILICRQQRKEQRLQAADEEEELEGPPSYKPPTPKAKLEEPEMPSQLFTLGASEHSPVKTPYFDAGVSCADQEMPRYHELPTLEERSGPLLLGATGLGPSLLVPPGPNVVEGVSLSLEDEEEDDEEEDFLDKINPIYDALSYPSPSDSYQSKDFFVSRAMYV
custom Fc-fused mouse PVRL2 (GenScript), sequence (P32507 32-351 limits assumed): as the sequence (P32507 32-351 limits assumed, stated change not applied) above
mouse PVRL2 splice variant 2 (sv2) over-expressed on HEK293 cells (RC-335) (mouse), sequence (P32507 32-530, change not shown): as the sequence (P32507 32-530, change not shown) above
mouse PVRL2 endogenously expressed on B16-F10 cells (mouse), sequence (P32507 32-530): as the sequence (P32507 32-530, change not shown) above

With “custom Fc-fused mouse PVRL2 (GenScript) (from UniProt P32507 32-351) (Fc fusion)”, the fold binding in assay [1] came out at 5 fold.
Consider “PVRIG mECD-mIg fusion protein (ECD of mouse PVRIG fused to the Fc of mouse IgG2a) (Fc fusion)”, for which the concentration at saturation of binding in assay [2] and in assay [3] was 12.5 µg/mL in each case. In addition, in assay [4], the fold binding vs empty vector cells fell in the range of 6 to 11 fold.
For “mouse PVRL2-his (R&D, 3869-N2; Sino Biological, 50318-M08H) (from UniProt P32507 32-351) (ligand)”, the fold binding vs empty vector cells in assay [5] is 3 to 4 fold; in assay [7], 2 fold. The fold binding in assay [6] was 2 to 3 fold.
